These results are taken from paper PMC6646356, “The AAA + ATPase TorsinA polymerizes into hollow helical tubes with 8.5 subunits per turn” (Nature Communications, 2019).

Data set [1] deals with the molecule itself. The data set is described as follows: SEC; gel filtration of affinity-purified MBP-TorsinA; self-association, elution in the void volume. For orientation: Size exclusion chromatography separates by hydrodynamic size, large species first.
Data set [2] deals with the molecule itself. Nature of the data set: negative-stain electron microscopy; purified TorsinA variants without liposomes, diluted in ATP-containing buffer (HEPES/NaOH pH 8.0, NaCl, 10 mM MgCl2, ATP), 2% uranyl acetate stain; filament formation (self-polymerisation); MBP tag uncleaved or cleaved with 3C protease.

B1: MBP-TorsinA (human TorsinA residues 51–332, N-terminally MBP-tagged) (domain or fragment, UniProt O14656 51-332, looked up)
chain: GQKRSLSREALQKDLDDNLFGQHLAKKIILNAVFGFINNPKPKKPLTLSLHGWTGTGKNFVSKIIAENIYEGGLNSDYVHLFVATLHFPHASNITLYKDQLQLWIRGNVSACARSIFIFDEMDKMHAGLIDAIKPFLDYYDLVDGVSYQKAMFIFLSNAGAERITDVALDFWRSGKQREDIKLKDIEHALSVSVFNNKNSGFWHSSLIDRNLIDYFVPFLPLEYKHLKMCIRVEMQSRGYEIDEDIVSRVAEEMTFFPKEERVFSDKGCKTVFTKLDYYYDD
notes: TorsinA, human, residues 51-332; MBP tag is cleavable by human rhinovirus 3C protease; uncleaved in this form; Forms helical polymers of no fixed size; also called MBP-tagged TorsinA; wild-type; source: E. coli LOBSTR(DE3) RIL, purified (amylose resin); not shown: MBP, N-terminal, kept
Consider B1, for which the binding result in data set [1] is reported as “binds”.

B2: TorsinA (human, residues 51–332), MBP cleaved with 3C protease (domain or fragment, UniProt O14656 51-332, looked up)
chain: GQKRSLSREALQKDLDDNLFGQHLAKKIILNAVFGFINNPKPKKPLTLSLHGWTGTGKNFVSKIIAENIYEGGLNSDYVHLFVATLHFPHASNITLYKDQLQLWIRGNVSACARSIFIFDEMDKMHAGLIDAIKPFLDYYDLVDGVSYQKAMFIFLSNAGAERITDVALDFWRSGKQREDIKLKDIEHALSVSVFNNKNSGFWHSSLIDRNLIDYFVPFLPLEYKHLKMCIRVEMQSRGYEIDEDIVSRVAEEMTFFPKEERVFSDKGCKTVFTKLDYYYDD
notes: TorsinA, human, residues 51-332; Helical polymer, 8.5 subunits per turn; nucleotide modeled as ATP; also called TorsinA filaments; TorsinA polymers; source: E. coli LOBSTR(DE3) RIL, purified (amylose resin), MBP cleaved with 3C protease during dialysis; not shown: MBP, N-terminal, cleaved
For B2, in data set [2], the binding result is reported as “binds”.

B3: TorsinA H140N (domain or fragment, human, UniProt O14656 51-332, looked up)
chain: GQKRSLSREALQKDLDDNLFGQHLAKKIILNAVFGFINNPKPKKPLTLSLHGWTGTGKNFVSKIIAENIYEGGLNSDYVHLFVATLHFPNASNITLYKDQLQLWIRGNVSACARSIFIFDEMDKMHAGLIDAIKPFLDYYDLVDGVSYQKAMFIFLSNAGAERITDVALDFWRSGKQREDIKLKDIEHALSVSVFNNKNSGFWHSSLIDRNLIDYFVPFLPLEYKHLKMCIRVEMQSRGYEIDEDIVSRVAEEMTFFPKEERVFSDKGCKTVFTKLDYYYDD
notes: TorsinA, human, residues 51-332; source: E. coli LOBSTR(DE3) RIL, purified (amylose resin)
Take B3: the binding result in data set [2] is given as “binds”.

B4: TorsinA K174E (domain or fragment, human, UniProt O14656 51-332, looked up)
chain: GQKRSLSREALQKDLDDNLFGQHLAKKIILNAVFGFINNPKPKKPLTLSLHGWTGTGKNFVSKIIAENIYEGGLNSDYVHLFVATLHFPHASNITLYKDQLQLWIRGNVSACARSIFIFDEMDEMHAGLIDAIKPFLDYYDLVDGVSYQKAMFIFLSNAGAERITDVALDFWRSGKQREDIKLKDIEHALSVSVFNNKNSGFWHSSLIDRNLIDYFVPFLPLEYKHLKMCIRVEMQSRGYEIDEDIVSRVAEEMTFFPKEERVFSDKGCKTVFTKLDYYYDD
notes: as for B3
Consider B4, for which, in data set [2], the binding result was “binds”.

B5: TorsinA K174A (domain or fragment, human, UniProt O14656 51-332, looked up)
chain: GQKRSLSREALQKDLDDNLFGQHLAKKIILNAVFGFINNPKPKKPLTLSLHGWTGTGKNFVSKIIAENIYEGGLNSDYVHLFVATLHFPHASNITLYKDQLQLWIRGNVSACARSIFIFDEMDAMHAGLIDAIKPFLDYYDLVDGVSYQKAMFIFLSNAGAERITDVALDFWRSGKQREDIKLKDIEHALSVSVFNNKNSGFWHSSLIDRNLIDYFVPFLPLEYKHLKMCIRVEMQSRGYEIDEDIVSRVAEEMTFFPKEERVFSDKGCKTVFTKLDYYYDD
notes: as for B3
Take B5: the binding result in data set [2] is recorded as “binds”.
